Test results published in patent publication US20260258115A1 (MAPP BIOPHARMACEUTICAL, published 2026).

Assays:
[1] = target: T1, postF (RSV F ΔFP) with a C-terminal HRV 3C cleavage site, 8xHisTag and StrepTagII (Respiratory Syncytial Virus, UniProt P03420 26-109; P03420 147-513); test: SPR, postF captured on NTA chip, Fab in solution, steady-state fit
T1 construct: also called postfusion F; not shown: C-terminal HRV 3C cleavage site, 8xHisTag and StrepTagII

[2] = target: Respiratory Syncytial Virus fusion glycoprotein (RSV F) on RSV-A2 virus (Respiratory Syncytial Virus, UniProt P03420 26-574); test: cell-based or functional assay
[3] = target: RSV prefusion F (preF), DS-Cav1 (Respiratory Syncytial Virus, UniProt P03420 26-513); test: BLI (ForteBio Octet), IgG on anti-human IgG biosensors
[4] = target: RSV postfusion F (postF), F ΔFP (Respiratory Syncytial Virus, UniProt P03420 26-513); test: BLI (ForteBio Octet), IgG on anti-human IgG biosensors, 100 nM antigen, apparent (IgG) KD
[5] = target: RSV F on RSV subtype A virus (RSV-A2) (Respiratory Syncytial Virus, subtype A, …, UniProt P03420 26-574); test: cell-based or functional assay
[6] = target: RSV prefusion F (preF), DS-Cav1 stabilized trimer, subtype A (Respiratory Syncytial Virus, subtype A, UniProt P03420 26-513); test: BLI, IgG on anti-human IgG sensors
[7] = target: RSV postfusion F (postF), F ΔFP trimer, subtype A (Respiratory Syncytial Virus, subtype A, UniProt P03420 26-513); test: BLI, IgG on anti-human IgG sensors, 100 nM antigen, apparent KD
[8] = target: T2, preF (DS-Cav1) with a C-terminal 8X HisTag and AviTag (Respiratory Syncytial Virus, UniProt P03420 26-513); test: SPR, preF (DS-Cav1) captured on NTA chip, Fab in solution, 1:1 model
T2 construct: not shown: C-terminal 8X HisTag and AviTag

B1: ADI-14359 R50L Fab (germline reverted variant) (Fab, V domains shown)
VH: QVQLVQSGPALVKPTQTLTLTCTFSGFSLSTSGMCVSWIRQPPGKALEWLALIDWDDDKYYSTSLKTRLTISKDTSKNQVVLTMTNMDPVDTATYYCARATNYDSSGYYSLYFDYWGQGTLVTVSS
VL: not shown
fold reduction in affinity relative to ADI-14359 Fab [1]: > 30 fold

B2: ADI-43648 (antibody, V domains shown)
VH: EVQLVQSGAEVKKPGASVKVSCKASGYTFTSYDINWVRQATGQGLEWMGWMNPNSGNTGYAQKFQGRVTMTRNTSISTAYMELSSLRSEDTAVYYCATRPAALDYWGQGTLVTVSS
VL: QPVLTQPLSVSVALGQTARITCGGNNIGSKNVHWYQQKPGQAPVLIIYRDSNRPSGIPERFSGSNSGNTATLTISRAQAGDEADYYCQVWDSSTWVFGGGTKLTVL
Neutralization IC50 (RSV subtype A) [2]: > 25 µg/mL
binding result [3]: no binding
Kd [4]: 28.6 nM

B3: ADI-43647 (antibody, V domains shown)
VH: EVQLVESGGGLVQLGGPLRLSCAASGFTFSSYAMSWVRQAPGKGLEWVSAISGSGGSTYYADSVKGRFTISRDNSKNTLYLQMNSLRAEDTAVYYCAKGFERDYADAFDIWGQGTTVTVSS
VL: DIRMTQSPSSVSASVGDRVTITCRASQGISSWLAWYQQKPGKAPKLLIYAASSLQSGVPSRFSGSGSGTDFTLTISSLQPEDFATYYCQQANSFPITFGQGTRLEIK
notes: also called Ab 828; Antibody Number 828
Neutralization IC50 (RSV subtype A) [2]: > 25 µg/mL
binding result [3]: no binding
Kd [4]: 44.6 nM

B4: ADI-43639 (antibody, V domains shown)
VH: QVQLVQSGSELKKPGASVKVSCKASGYTFTSYAMNWVRQAPGQGLEWMGWINTNTGNPTYAQGFTGRFVFSLDTSVSTAYLQISSLKAEDTAVYYCAAYGIHDAFDIWGQGTMVTVSS
VL: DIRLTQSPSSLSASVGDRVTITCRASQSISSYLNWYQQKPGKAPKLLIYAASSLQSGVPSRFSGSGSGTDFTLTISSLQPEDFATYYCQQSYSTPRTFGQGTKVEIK
Neutralization IC50 (RSV subtype A) [5]: > 25 µg/mL
binding result [6]: no binding (tested: 100 nM antigen)
Kd [7]: 233 nM

B5: ADI-43638 (antibody, V domains shown)
VH: QVQLQQWGAGLLKPSETLSLTCAVYGGSFSGYYWSWIRQPPGKGLEWIGEINHSGSTNYNPSLKSRVTISVDTSKNQFSLKLSSVTAADTAVYYCARGVPVLRYFDWLRFGYGMDVWGQGTTVTVSS
VL: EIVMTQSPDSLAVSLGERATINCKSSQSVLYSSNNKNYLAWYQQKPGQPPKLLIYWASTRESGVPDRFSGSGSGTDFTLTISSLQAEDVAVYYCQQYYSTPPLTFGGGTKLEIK
Neutralization IC50 (RSV subtype A) [5]: > 25 µg/mL
binding result [6]: no binding (tested: 100 nM antigen)
Kd [7]: 9.93 nM

B6: ADI-19425 Fab variant, light chain Y31A (Fab, V domains shown)
VH: EVQLVESGGGLVKPGGSLRLSCAASGFTFSSYSMNWVRQAPGKGLEWVSSISSSSSYIYYADSVKGRFTISRDNAKNSLYLQMNSLRAEDTAVYYCARLGYCSGGSCHFDYWGQGTLVTVSS
VL: QPVLTQPPSVSGAPGQRVTISCTGSSSNIGAGADVHWYQQLPGTAPKLLIYGNSNRPSGVPDRFSGSKSGTSASLAITGLQAEDEADYYCQSYDSSLSGFYVFGTGTKLTVL
notes: also called Y33A
fold reduction in affinity relative to ADI-19425 Fab [8]: > 20 fold

B7: ADI-19425 Fab variant, light chain Y91A (Fab, V domains shown)
VH: EVQLVESGGGLVKPGGSLRLSCAASGFTFSSYSMNWVRQAPGKGLEWVSSISSSSSYIYYADSVKGRFTISRDNAKNSLYLQMNSLRAEDTAVYYCARLGYCSGGSCHFDYWGQGTLVTVSS
VL: QPVLTQPPSVSGAPGQRVTISCTGSSSNIGAGYDVHWYQQLPGTAPKLLIYGNSNRPSGVPDRFSGSKSGTSASLAITGLQAEDEADYYCQSADSSLSGFYVFGTGTKLTVL
notes: also called Y93A
fold reduction in affinity relative to ADI-19425 Fab [8]: > 80 fold
